Consider one molecule from patent US20040172671A1, “Transgenic plants protected against parasitic plants” (priority 2001, published 2004).

The test system of series [1] is Orobanche aegyptiaca seeds. The series is described as follows: Petri dish assay: effect of SLP on O. aegyptiaca seed germination and radicle elongation. It is filed as in vivo. The procedure: The effect of the direct application of the lytic toxin Sarcotoxin IA (SLP) to seeds of the parasitic plant O. aegyptiaca was assayed. SLP was obtained by production in S. cerevisiae, and applied to seeds during both preconditioning and germination stages as follows: Yeast strain Y426-MATa yeast cells transformed with a yeast shuttle vector-pFL61 to express the sarcotoxin IA were cultured in -URA liquid media at 30° C. for 72 h as described in Aly et al. (1999). The cultures were then centrifuged for 5 min at 4000 g and the supernatant collected for SLP assay. Quantitative evaluation of the SLP concentration present in the growth media was obtained by Western blot analysis. The effect of SLP on O. aegyptiaca seeds was determined in a Petri dish assay. Parasite seeds were surface-sterilized, dispersed on Whatman GF/A glass-fiber (0.7 cm diam.), covered with the same filter, and placed in a Petri dish. […] After incubation in dark at 26° C. for 7 days, seeds were rated for radicles damage.

Series [2] deals with several bacteria, including plant pathogenic bacteria. The settings on record: SLP secreted from yeast cells (Aly et al, 1999); cited from earlier work.
[3] abbreviates: SLP 10 μM applied at germination (three days after GR24).
Setting [4] is: SLP 20 μM applied at germination.
Setting [5] is: SLP 20 μM applied at preconditioning.
Where [6] appears, read: SLP 30 μM applied at germination.
The mark [7] stands for this setting: SLP 30 μM applied at preconditioning.
[8] abbreviates: SLP 40 μM applied at germination.
The mark [9] stands for this setting: SLP 40 μM applied at preconditioning.

B1: sarcotoxin IA (protein, listed as Sarcophaga peregrina)
chain: MNFQNIFIFVALILAVFAGQSQAGWLKKIGKKIERVGQHTRDATIQGLGIAQQAANVAATARG
With B1, the “Gemination (% of control)” value in series [1] (setting [3]) is recorded as 80 ± 6 % of control; in series [1] (SLP 10 μM applied at preconditioning (mixed with GR24), 7 days, 26° C., dark), 76 ± 3 % of control; in series [1] (setting [4]) it was 76 ± 8 % of control; in series [1] (setting [5]), 69 ± 6 % of control; in series [1] (setting [6]), 43 ± 7 % of control; in series [1] (setting [7]), 6 ± 1 % of control. Also, the “Gemination (% of control)” value is recorded as 36 ± 2 % of control in series [1] (setting [8]) and 0 % of control in series [1] (setting [9]). Besides, the “Radicle length (% of control)” value in series [1] (setting [3]) is on record as 65 ± 5 % of control; in series [1] (SLP 10 μM applied at preconditioning (mixed with GR24)), 65 ± 6 % of control; in series [1] (setting [4]), 47 ± 3 % of control; in series [1] (setting [5]), 52 ± 2 % of control; in series [1] (setting [6]), 33 ± 4 % of control; in series [1] (setting [7]) it was 12 ± 8 % of control. Moreover, the “Radicle length (% of control)” value in series [1] (setting [8]) was 4 ± 1 % of control; in series [1] (setting [9]), 0 % of control. In series [1] (presence of SLP, in words), the “radicle elongation and seed germination of the parasite” value is recorded as “significantly reduced”. In series [2], the “cytotoxic effect against bacteria” value is given as “potent cytotoxic effect”.
